Source: patent US20240287177A1 (Merck KGaA, published 2024)
Where two headings read alike, the source gives them in different places.

Assays:
[1] = biological target: NKp30 on human NK cells (human) (UniProt O14931); test: cell-based or functional assay
[2] = biological target: FcγRIIIa on human NK cells (human) (UniProt P08637); test: cell-based or functional assay
[3] = biological target: recombinant human NKp30 extracellular domain, his-tagged (human) (UniProt O14931); test: BLI, SEEDbody on anti-human Fc sensors, soluble NKp30, 1:1 fit
[4] = biological target: T1, recombinant human NKp30 extracellular domain, his-tagged (human, UniProt O14931 19-135); test: BLI as in Example 1
T1 construct: BLI used human NKp30 bought from Abcam (his-tagged ECD); also called rh NKp30 ECD; human NKp30 (Abcam); not shown: his tag
T1 sequence: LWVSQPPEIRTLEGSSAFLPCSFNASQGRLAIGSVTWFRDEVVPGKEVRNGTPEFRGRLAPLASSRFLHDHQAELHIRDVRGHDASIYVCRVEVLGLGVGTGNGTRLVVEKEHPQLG

[5] = biological target: T1, recombinant human NKp30 extracellular …; test: BLI as in Example 1, maximum binding capacity
[6] = biological target: T1, recombinant human NKp30 extracellular …; test: BLI as in Example 1; remark: listed apart in the source
[7] = biological target: T1, recombinant human NKp30 extracellular …; test: BLI as in Example 1, maximum binding capacity; remark: listed apart in the source

FcγRIIIa on human NK cells (human), sequence (P08637 17-254): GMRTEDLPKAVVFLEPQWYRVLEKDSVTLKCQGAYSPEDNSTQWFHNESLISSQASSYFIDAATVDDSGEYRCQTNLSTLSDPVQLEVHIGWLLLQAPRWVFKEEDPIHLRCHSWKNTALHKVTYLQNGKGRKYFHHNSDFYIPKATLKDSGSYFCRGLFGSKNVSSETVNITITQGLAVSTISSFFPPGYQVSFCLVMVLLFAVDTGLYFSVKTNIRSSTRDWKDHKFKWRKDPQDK

B1: VHH1 SEEDbody eff- (bispecific antibody, part only; not given: silenced SEED Fc and cetuximab Fab, V domains shown, not shown: another chain or arm of the molecule; a dimerising Fc or GST; small tags and cut ends)
VHH: DVQLQESGGGLVQPGGSLRLSCATSGFTLDDYTIGWVRQAPGKEHEGVSCFSPSDGTTYYADSVKGRFTFSRDNAKNTVYLQMNSLKPEDTAVYYCAASFADGSSWCYDYWGQGTQVTVSS
EC50 (nM), MNC based killing of A431 cells, E:T 80:1 [1]: 0.00171 nM | EC50, lysis of A431 cells by isolated NK cells, E:T 10:1 [1]: 2.2 pM | Max. IFNγ release (pg/ml), NK cells with A431 cells [1]: 753 pg/mL | Max. Killing (% Lysis), MNC based killing of A431 cells, E:T 80:1 [1]: 53 % Lysis | Max. TNFα release (pg/ml), NK cells with A431 cells [1]: 104 pg/mL | EC50, lysis of A431 cells by isolated NK cells, E:T 10:1 [2]: 3.2 pM | Kd [3]: 270 pM | koff [3]: 0.000222 s⁻¹ | kon [3]: 819000 M⁻¹ s⁻¹

B2: VHH2 SEEDbody eff- (bispecific antibody, part only; not given: silenced SEED Fc and cetuximab Fab, V domains shown, not shown: another chain or arm of the molecule; a dimerising Fc or GST; small tags and cut ends)
VHH: DVQLQESGGGLVQAGGSLRLSCAVSGQTWTNYHIGWFRQAPGKARESVASIEWGGRGTYATDSVKGRFTISRDNAKNTVYLQMNSLKPEDTAVYYCAAQSSSRSPLESNYDYWGQGTQVTVSS
EC50 (nM), MNC based killing of A431 cells, E:T 80:1 [1]: 0.0132 nM | EC50, lysis of A431 cells by isolated NK cells, E:T 10:1 [1]: 34.4 pM | Max. IFNγ release (pg/ml), NK cells with A431 cells [1]: 580 pg/mL | Max. Killing (% Lysis), MNC based killing of A431 cells, E:T 80:1 [1]: 51 % Lysis | Max. TNFα release (pg/ml), NK cells with A431 cells [1]: 118 pg/mL | EC50, lysis of A431 cells by isolated NK cells, E:T 10:1 [2]: 3.9 pM | fold increase of killing potency, eff+ against eff- [2]: 8.8 fold | Kd [3]: 3270 pM | koff [3]: 0.000646 s⁻¹ | kon [3]: 198000 M⁻¹ s⁻¹

B3: VHH2.12 (humanized) (VHH)
VHH: EVQLVESGGGVVQPGGSLRLSCAASGQTWTNYHIGWFRQAPGKGLEWVASIEWGGRGTYATDSVKGRFTISRDNAKNTVYLQMNSLRAEDTAVYYCAAQSSSRSPLESNYDYWGQGTLVTVSS
notes: expressed and measured by BLI 'as described in Experiment 1' (there: bispecific SEEDbody on anti-human Fc sensors)
Kd [4]: 4240 pM | Emax (nm) [5]: 0.14 nm

B4: VHH2.15 (humanized) (VHH)
VHH: EVQLVESGGGVVQPGGSLRLSCAASGQTWTNYHIGWFRQAPGKGLESVASIEWGGRGTYATDSVKGRFTISRDNAKNTLYLQMNSLRAEDTAVYYCAAQSSSRSPLESNYDYWGQGTLVTVSS
notes: as for B3
Kd [4]: 12300 pM | Emax (nm) [5]: 0.07 nm

B5: VHH2.16 (humanized) (VHH)
VHH: EVQLVESGGGVVQPGGSLRLSCAASGQTWTNYHIGWFRQAPGKGLEWVASIEWGGRGTYATDSVKGRFTISRDNAKNTLYLQMNSLRAEDTAVYYCAAQSSSRSPLESNYDYWGQGTLVTVSS
notes: as for B3
Kd [4]: 4710 pM | Emax (nm) [5]: 0.11 nm

B6: VHH1 (parental, as tested in Example 8) (VHH)
VHH: DVQLQESGGGLVQPGGSLRLSCATSGFTLDDYTIGWVRQAPGKEHEGVSCFSPSDGTTYYADSVKGRFTFSRDNAKNTVYLQMNSLKPEDTAVYYCAASFADGSSWCYDYWGQGTQVTVSS
notes: as for B3
Kd [6]: 248 pM | Emax (nm) [7]: 0.13 nm

B7: VHH1.1 (humanized) (VHH)
VHH: EVQLVESGGGVVQPGGSLRLSCATSGFTLDDYTIGWVRQAPGKEHEGVSCFSPSDGTTYYADSVKGRFTFSRDNAKNTVYLQMNSLRAEDTAVYYCAASFADGSSWCYDYWGQGTLVTVSS
notes: as for B3
Kd [6]: 275 pM | Emax (nm) [7]: 0.13 nm

B8: VHH1.2 (humanized) (VHH)
VHH: EVQLVESGGGVVQPGGSLRLSCATSGFTLDDYTIGWVRQAPGKEHEGVSCFSPSDGTTYYADSVKGRFTFSRDNAKNTLYLQMNSLRAEDTAVYYCAASFADGSSWCYDYWGQGTLVTVSS
notes: as for B3
Kd [6]: 293 pM | Emax (nm) [7]: 0.12 nm

B9: VHH1.3 (humanized) (VHH)
VHH: EVQLVESGGGVVQPGGSLRLSCAASGFTLDDYTIGWVRQAPGKEHEGVSCFSPSDGTTYYADSVKGRFTISRDNAKNTLYLQMNSLRAEDTAVYYCAASFADGSSWCYDYWGQGTLVTVSS
notes: as for B3
Kd [6]: 1070 pM | Emax (nm) [7]: 0.12 nm

B10: VHH1.4 (humanized) (VHH)
VHH: EVQLVESGGGVVQPGGSLRLSCATSGFTLDDYTIGWVRQAPGKGLEGVSCFSPSDGTTYYADSVKGRFTFSRDNAKNTVYLQMNSLRAEDTAVYYCAASFADGSSWCYDYWGQGTLVTVSS
notes: as for B3
Kd [6]: 547 pM | Emax (nm) [7]: 0.12 nm

B11: VHH1.5 (humanized) (VHH)
VHH: EVQLVESGGGVVQPGGSLRLSCAASGFTLDDYTIGWVRQAPGKGLEGVSCFSPSDGTTYYADSVKGRFTISRDNAKNTVYLQMNSLRAEDTAVYYCAASFADGSSWCYDYWGQGTLVTVSS
notes: as for B3
Kd [6]: 888 pM | Emax (nm) [7]: 0.1 nm

B12: VHH1.6 (humanized) (VHH)
VHH: EVQLVESGGGVVQPGGSLRLSCATSGFTLDDYTIGWVRQAPGKGLEGVSCFSPSDGTTYYADSVKGRFTFSRDNAKNTLYLQMNSLRAEDTAVYYCAASFADGSSWCYDYWGQGTLVTVSS
notes: as for B3
Kd [6]: 797 pM | Emax (nm) [7]: 0.14 nm

B13: VHH1.7 (humanized) (VHH)
VHH: EVQLVESGGGVVQPGGSLRLSCAASGFTLDDYTIGWVRQAPGKGLEGVSCFSPSDGTTYYADSVKGRFTFSRDNAKNTLYLQMNSLRAEDTAVYYCAASFADGSSWCYDYWGQGTLVTVSS
notes: as for B3
Kd [6]: 533 pM | Emax (nm) [7]: 0.09 nm

B14: VHH1.8 (humanized) (VHH)
VHH: EVQLVESGGGVVQPGGSLRLSCATSGFTLDDYTIGWVRQAPGKGLEGVSCFSPSDGTTYYADSVKGRFTISRDNAKNTLYLQMNSLRAEDTAVYYCAASFADGSSWCYDYWGQGTLVTVSS
notes: as for B3
Kd [6]: 1130 pM | Emax (nm) [7]: 0.1 nm

B15: VHH1.9 (humanized) (VHH)
VHH: EVQLVESGGGVVQPGGSLRLSCAASGFTLDDYTIGWVRQAPGKGLEGVSCFSPSDGTTYYADSVKGRFTISRDNAKNTLYLQMNSLRAEDTAVYYCAASFADGSSWCYDYWGQGTLVTVSS
notes: as for B3
Kd [6]: 1060 pM | Emax (nm) [7]: 0.1 nm
